Data as given in patent US20220315908A1, “NOVEL GARDNERELLA ENDOLYSINS AND USES THEREOF” (priority 2019, published 2022).

B1: H7B7: natural Gardnerella prophage endolysin from strain AMD (protein)
chain: MSKKGIDVSEWQGDIDFNAVKASGVEFVIIRAGYGIGCKDKWFEQNYRKAKTAGLDVGAYWYSYANSASEAAEEAQSCANMLSGKSFEYPVYFDLEEKSQLNRGRAFCDSLITSFCSKLETYGYYAGFYTSLSTANNLVSSHVRNRYALWIAQWNTHCSYQGSYGLWQYSSSGSVPGVAGRVDMDYAYKDYPSIIKNAGLNGCKNGGSDQAARTSSIDEVAREVINGAWGNGNERKQRLTQAGYDYTSVQNKVNKLLGVKACRKSVDELAREVIRGTWGNGNERKNRLTQAGYDYDTVQKRVNELL
modifications: EL7_strain_AMD
notes: natural Gardnerella prophage endolysin from strain AMD
B2: H12B12: natural Gardnerella prophage endolysin from strain 3549624 (protein)
chain: MSKKGIDVSVWQGDIDFNAVKASGVEFVIIRAGYGIGHKDKWFEENYRKAKTAGLDVGSYWYSYASSAGEVALEAQSCVNILSGKSFEYPVYFDLEEKSQLNRGRDFCDSLITSFCNKLEACGYYAGFYTSLSVANNLVSSHVRDRYALWIAQWNTHCSYQGSYGLWQYSSSGSVNGIAGRVDMDYAYVDYPSVIKNAGLNGYQNGGSYTAPQTSSIDEVAREVINGDWGNGIERKNRLTSAGYDYTSVQNKVNELLGVKAYRKSVDELAREVIRGTWGNGKTRKQRLTQAGYDYNAVQKRVNELL
modifications: EL12_strain_3549624_non-prophage
B3: H10B10: natural Gardnerella prophage endolysin from strain G30-4 (protein)
chain: MSKRGIDVSVWQGDIDFNAVKASGVEFVIIRAGYGIGHKDKWFEENYRKAKTVGLDVGAYWYSYASSAGEASEEAQSCVNILSGKSFEYPVYFDLEEKSQLNRGRDFCDSLITSFCNKLEACGYYAGFYTSLSVANNLVSSHVRDRYALWIAQWNTHCSYQGSYGLWQYSSSGSVNGIAGRVDMDYAYVDYPSVIKNAGLNGYKNGGSYTAPQISSIDEVAREVINGDWGNGNERKQRLTSAGYDYASVQNKVNELLGVKAYRKSVDELAREVIRGTWGNGSTRKQRLTQAGYDYNAVQKRVNELL
modifications: EL10_strain_G30-4
B4: H11B11: natural Gardnerella prophage endolysin from strain JCP8017A (protein)
chain: MSKRGIDVSVWQGDIDFNAVKASGVEFVIIRAGYGIGHKDKWFEQNYRKAKTTGLDVGAYWYSYASSAGEAAEEAQSCVNILSGKSFEYPVYFDLEEKSQLNRGRDFCDSLITSFCNKLETYGYYAGFYTSLSVANNLVSSHVRDRYALWIAQWNTHCDYQGSYGLWQYSSSGSVDGIAGRVDMDYTYVDYPSVIKKAGLNGYKNGGSYTAPQTSSIDEVAREVINGDWGNGNERKNRLTSAGYDYTSVQNKVNELLGVKAYRKSVDELAREVIRGTWGNGSTRKQRLTQAGYDYDAVQKRVNELL
modifications: EL11_strain_JCP8017A
notes: natural Gardnerella prophage endolysin from strain JCP8017A

Legend:
G. piotii strain Gv_17 = experiment: Quantitative reduction in viable CFU assay in bacterial suspension; format: cell-based, Gardnerella piotii; details: 5 hours, pH 5.0, anaerobic, 10 ul endolysin (0.2 mg/ml where possible) + 90 ul 5e7 CFU/ml, average of triplicate
Experimental: The lysis activity on the four main species of Gardnerella of 91 constructs (natural and domain-swapped endolysins) was quantitatively assessed using the method described in Reference Example 2. Briefly, 90 ul 5e7 CFU/ml of the indicated strain were incubated for 5 hours at pH 5.0 under anaerobic conditions with 10 ul endolysin (concentration adjusted to 0.2 mg/ml where possible, see Table 4).
The results are shown in FIGS. 8A to 8D together with Tables 5A to 5C. In FIGS. 8A to 8D, the logarithmic Y axis depicts the count of surviving cells. The dotted line indicates the limit of detection (LOD) given by plating of 2 ul of the reaction mix (500 CFU/ml). Each combination of the natural 10 H-domains and the natural 9 B-regions was assessed, including the natural endolysins (H1B1, H2B2, H3B3, etc.), plus H6B6. […] The activity of each construct was measured on each of the 4 main Gardnerella species G. vaginalis sensu stricto, G. leopoldii, G. piotii, and G. swidsinkii. All conditions have been measured in triplicate. The survival after 5 hours incubation at pH 5.0 under anaerobic conditions with endolysins vs. buffer was measured by quantitative plating. The values indicate the log 10 of the ratio of surviving CFU for treated vs. untreated cells. The average of the triplicate measurements is used. In tables 5A and 5B, high negative log 10 values, e.g. −6.7, −5.5, −4.8 etc. are associated with high enzymatic activity, while log 10 values closer to zero or even positive log 10 values are associated with low or no enzymatic activity. […] Inversely, a reduction value of −3.7 means a 10^3.7-fold (=5012-fold) reduction of viable CFU in treated sample vs. untreated control.
(§1) Gardnerella cells were recovered from cryo stock by plating on Chocolate Agar plates (Beckton Dickinson) and incubating for 48 h at 37° C. under anaerobic conditions. For Lactobacilli, BD Schaedler/5% sheep blood agar plates were used instead. Colonies were scraped from the plate, resuspended in Hardy Broth or NYC-III-HS-5.0 at the pH as indicated, and the suspension adjusted to OD (610 or 620 nm as indicated) 0.1. It has to be noted that two Tecan Microplate readers, having respectively a 610 nm or 620 nm filter, have been used interchangeably in the experiments. Although it doesn't make any difference for the experiments, the exact wavelength used is specified in each example. If not stated otherwise, 90 μl cell suspension was mixed with 10 μl endolysin solution, for the different species/endolysin combinations, in 384-well plates. OD(610-620 nm as indicated) was measured at the beginning of the reaction and at the end, either as two measurement points or as a continuous kinetic in a Tecan F200 Microplate reader. The reactions were incubated for 5 hours (or otherwise the time indicated) at 37° C. under anaerobic, micro-aerophilic or aerobic conditions as indicated. Anaerobic conditions intend that oxygen was fully depleted from the container in which the bacteria are incubated (Sigma-Aldrich anaerobic jar or sealable lunch box) with an anaerobic sachet, and the lack of oxygen was confirmed with an anaerobic indicator inside the container. Where micro-aerophilic conditions are indicated, the candle-in-a-jar method was used (tea candle lit in an appropriate sealable container, which reduces oxygen levels until the flame dies out). Then each well was diluted in 5 steps (10^−1 to 10^−5) using 96-U-well bottom plates, and 2 μl of each dilution of each reaction mix are plated on BD Chocolate agar plates or BD Schaedler/5% sheep blood agar plates for Gardnerella and Lactobacilli, respectively, for detecting and quantifying surviving CFU. Detection plates were incubated at 37° C. for 48 hours under anaerobic conditions.

Gardnerella cells = experiment: Turbidity reduction (OD) assay of Gardnerella suspensions; format: cell-based; details: Gv_10 pH 6.0, Gv_17 pH 7.0, Gv_23 pH 7.4; aerobic, room temperature; vs buffer
Experimental: FIGS. 4A to 4C show three enzymatic activity assays where the enzymatic activity of natural Gardnerella prophage endolysins of the present disclosure is measured by detecting the change in turbidity of a suspension of Gardnerella cells. In FIG. 4A, the enzymatic activity of the endolysins is measured by detecting the change in turbidity of a suspension of the G. leopoldii strain Gv_10 at pH 6.0. In FIG. 4B, the enzymatic activity of the endolysins is measured by detecting the change in turbidity of a suspension of the G. piotii strain Gv_17 at pH 7.0. In FIG. 4C, the enzymatic activity of the endolysins is measured by detecting the change in turbidity of a suspension of the G. swidsinskii strain Gv_23 at pH 7.4. Treatment was conducted in a medium adjusted to the appropriate pH in a photometric cuvette against buffer. Then, the change in turbidity was assessed by measuring the optical density (OD) at 600 nm. As a result, the drop in turbidity was more pronounced for the endolysin treated groups than for the buffer, indicating enzymatic activity.
To test the activity of the purified endolysins, the turbidity change of Gardnerella suspensions (see Table 2) was measured at 610-620 nm using essentially the method described in Reference Example 2, where 95 ul of bacterial suspension in Hardy Broth at the indicated pH was mixed with 5 ul of endolysin solution in a photometric cuvette under aerobic conditions at room temperature. In turbidity reduction assays, a decrease in light scattering (i.e., turbidity reduction) of a suspension of live cells can be used in a spectrophotometer to assay the activity of peptidoglycan hydrolases. The reduction in optical density over time (minutes) can be used to calculate a rate of hydrolysis. Results are compared to a “no-enzyme added, buffer only” control preparation treated identically for the same period of time. In this manner, a specific activity of the enzyme preparation can be reported as ΔOD/time/ul lysin protein. […] As explained above, due to the low content of peptidoglycan in the cell wall, the fact that a peptidoglycan-degrading enzyme such as the identified endolysins could efficiently lyse the bacterial cell walls was an unexpected and surprising discovery.
as §1, with “Then each well was diluted in 5 steps (10^−1 to 10^−5) using 96-U-well bottom plates, and 2 μl of each dilution of each reaction mix are plated on BD Chocolate agar plates or BD Schaedler/5% sheep blood agar plates for Gardnerella and Lactobacilli, respectively, for detecting and quantifying surviving CFU. Detection plates were incubated at 37° C. for 48 hours under anaerobic conditions.” left out

Molecule | log 10 of the ratio of surviving CFU for treated vs. untreated cells (G. piotii strain Gv_17) [log 10] | enzymatic activity by drop in turbidity (capacity to lyse Gardnerella cell walls) (Gardnerella cells)
B1 | −1.2 | active
B2 | −0.3 | active
B3 | −2.4 | active
B4 | −1.0 | active
